Data on eleven molecules can be found in publication PMC5908797, “Evolutionary plasticity of the NHL domain underlies distinct solutions to RNA recognition”.

The target of series [1] is T1, CeLIN41 filamin-NHL (Caenorhabditis elegans, UniProt Q9U489 691-1147).
T1 sequence: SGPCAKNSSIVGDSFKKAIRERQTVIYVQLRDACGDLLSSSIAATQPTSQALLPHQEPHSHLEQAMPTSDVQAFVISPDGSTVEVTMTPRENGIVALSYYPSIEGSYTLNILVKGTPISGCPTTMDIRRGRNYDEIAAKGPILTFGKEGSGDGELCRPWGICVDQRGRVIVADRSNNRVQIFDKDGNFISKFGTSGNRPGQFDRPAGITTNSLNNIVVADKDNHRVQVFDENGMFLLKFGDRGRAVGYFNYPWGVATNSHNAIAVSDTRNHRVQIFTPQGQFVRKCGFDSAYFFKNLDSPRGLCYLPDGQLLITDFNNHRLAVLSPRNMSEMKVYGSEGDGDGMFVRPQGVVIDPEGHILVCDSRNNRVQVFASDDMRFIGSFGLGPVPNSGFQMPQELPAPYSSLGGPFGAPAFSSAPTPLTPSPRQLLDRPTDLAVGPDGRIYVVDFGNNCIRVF
The series can be described thus: fluorescence polarization; FP: 20 mM HEPES, 200 mM NaCl, 0.05% Tween20, 100 nM Cy5-RNA, 30 min room temp; EMSA: 1x of 2x buffer (20 mM Hepes pH 8, 100 mM KCl, 200 mM NaCl, 0.2 mM EDTA, 20 mM DTT, 2 mM MgCl2, 2 mM CaCl2, 0.2 mM ZnSO4, 60% glycerol, heparin, E. coli tRNA), 5 uM protein stock (1 ul in 8 ul), ~2 nM RNA, room temp. The note with it: protein: recombinant, tags: N-terminal Strep tag, TEV site, label: 5'-Cy5, hairpin.

The target in series [2] is T1, CeLIN41 filamin-NHL. The series can be described thus: EMSA; FP: 20 mM HEPES, 200 mM NaCl, 0.05% Tween20, 100 nM Cy5-RNA, 30 min room temp; EMSA: 1x of 2x buffer (20 mM Hepes pH 8, 100 mM KCl, 200 mM NaCl, 0.2 mM EDTA, 20 mM DTT, 2 mM MgCl2, 2 mM CaCl2, 0.2 mM ZnSO4, 60% glycerol, heparin, E. coli tRNA), 5 uM protein stock (1 ul in 8 ul), ~2 nM RNA, room temp. Particulars: protein: recombinant, tags: N-terminal Strep tag, TEV site, label: 32P (radioactive) body label.

In series [3] the target is T1, CeLIN41 filamin-NHL. The series can be described thus: EMSA; restored to wild-type level; FP: 20 mM HEPES, 200 mM NaCl, 0.05% Tween20, 100 nM Cy5-RNA, 30 min room temp; EMSA: 1x of 2x buffer (20 mM Hepes pH 8, 100 mM KCl, 200 mM NaCl, 0.2 mM EDTA, 20 mM DTT, 2 mM MgCl2, 2 mM CaCl2, 0.2 mM ZnSO4, 60% glycerol, heparin, E. coli tRNA), 5 uM protein stock (1 ul in 8 ul), ~2 nM RNA, room temp. The note with it: protein: recombinant; tags: N-terminal Strep tag, TEV site; label: 32P (radioactive) body label; stems restored by compensatory mutations. A general note: A gel shift assay detects complexes by their altered migration in electrophoresis.

Series [4] concerns the target T1, CeLIN41 filamin-NHL. The series can be described thus: EMSA; restored; FP: 20 mM HEPES, 200 mM NaCl, 0.05% Tween20, 100 nM Cy5-RNA, 30 min room temp; EMSA: 1x of 2x buffer (20 mM Hepes pH 8, 100 mM KCl, 200 mM NaCl, 0.2 mM EDTA, 20 mM DTT, 2 mM MgCl2, 2 mM CaCl2, 0.2 mM ZnSO4, 60% glycerol, heparin, E. coli tRNA), 5 uM protein stock (1 ul in 8 ul), ~2 nM RNA, room temp. The note with it: protein: recombinant; tags: N-terminal Strep tag, TEV site; label: 32P (radioactive) body label; SL I and III restored.

Substitutions are numbered along the chain they refer to.

The Kd is the equilibrium constant for the complex coming apart. Consider GGAGUCCAACUCC (structured_RNA) [L1 (lin-29A SL I, WT LRE)], for which the dissociation constant (Kd) with CeLIN41 filamin-NHL [1] (5 bp stem, tri-loop) amounted to 1320 nM.

B1: mab-10 part 4 (structured_RNA)
RNA: UCGCAUCCAAUGCAUUGCAAGUUGAUUGCUUUUAUAAAUUUUUGGGUCUCGAAGCGAAAAGCCCAUAGGAUUUUCACAAAAAUUUUGCAUUUAAUGCAGUGAAAAUUCAAAAAAUUCAAAGAUUUUUCUGAAUAGAUCAAAUUUUCAAAUUUUCCGGUCAUUCGAAAUGGCCUAAUUUGCUCCAAAAAUUUGAAUAAUCC
On to B1, for which the binding result with CeLIN41 filamin-NHL [2] (tri-loop stem-loops) is on record as “binds”.

B2: mab-10 part 4 mut-res (structured_RNA)
RNA: B1 RNA with C4G, G12C, C88G, G96C, C159G, G169C
As to B2, in the series with CeLIN41 filamin-NHL [3], the binding result is given as “binds”.

B3: mab-10 part 2 (structured_RNA)
RNA: UAAAUUCCCGCCCCCUUCGCUCGGAGUCAUAUAAUUUCCUUCUCUUCCUAUCACUUUUUUGUCUAGUUUUCAAAAAACCCCCCAUUUUUCCGGCGGUUUUUCAAAAACCAAUGCCAAGCUCUCAUAUAAUGGGAGUCUAAACACAGUUCGGUUCCAAAACCAACGCCCACGGCCCCGCCCCCAAUUAGAUAAUUUAAAUA
As for B3, in the series with CeLIN41 filamin-NHL [2] (tri-loop stem-loops), the binding result is on record as “binds”.

B4: mab-10 part 2 mut-res (structured_RNA)
RNA: B3 RNA with G96C, C108G, C123G, G131C
In the case of B4, the binding result with CeLIN41 filamin-NHL [3] is on record as “binds”.

B5: lin-29A 5'UTR (structured_RNA)
RNA: GUUCCGAACCAAUUCGCCUAGCGAACCUUGGAGUCCAACUCCGUUUUUACUCUUUUCUGAAAAGAGCCUACUAAAUAUUGGAACUAUAAUCAAACUAUUCGAUCAAAUCGACACACCUACUAGAUAUCAAAUAUCUAAUACUGGAACCAAGGCUUGGGUAACCUGAAACUGUGCGAAUUUGGAGCAGAAAUAUU
On to B5, for which, in the series with CeLIN41 filamin-NHL [2] (four tri-loop stem-loops), the binding result was “binds”.

B6: lin-29A mut2-res (structured_RNA)
RNA: B5 RNA with G33C, C39G, G101C, C109G
With B6, the binding result with CeLIN41 filamin-NHL [4] is given as “binds”.

B7: mab-10 condensed 3'UTR (structured_RNA)
RNA: UCUAGUUUUCAAAAAACCCCCCAUUUUUCCGGCGGUUUUUCAAAAACCAAUGCCAAGCUCUCAUAUAAUGGGAGUCUAAACACAGUUCGGUUCCAAAACUGAAAAACUUCAAUUUCGCAUCCAAUGCAUUGCAAGUUGAUUGCUUUUCACAAAAAUUUUGCAUUUAAUGCAGUGAAAAUUUUCCGGUCAUUCGAAAUGGCCUAAUUUGCUCCAAAAA
As to B7, in the series with CeLIN41 filamin-NHL [2] (five tri-loop stem-loops), the binding result is “binds”.

B8: mab-10 condensed 3'UTR mut (structured_RNA)
RNA: B7 RNA with G35C, C62G, C118G, C161G, C188G
Take B8: in the series with CeLIN41 filamin-NHL [2] (five stems disrupted), the binding result is listed as “no binding”.

B9: mab-10 condensed 3'UTR mut-res (structured_RNA)
RNA: B7 RNA with G35C, C47G, C62G, G70C, C118G, G126C, C161G, G169C, C188G, G198C
With B9, the binding result with CeLIN41 filamin-NHL [2] (five stems restored) was “binds”. Regarding GCUGACCAACUCC (structured_RNA) [Ctrl (5-nt loop)], the binding result with CeLIN41 filamin-NHL [1] (5 nt loop) is “no binding”.
